Measurements from PMC12412097, “Structure and Nitrite Reductase Activity of the Di-iron Protein ScdA in Staphylococcus aureus” (Journal of the American Chemical Society, 2025).

Assays:
[1] = target: the molecule itself; experiment: SEC; as a1, protein treated with the reducing agent DTT
[2] = target: the molecule itself; experiment: SEC; Superdex 75 Increase 10/300 GL, 20 mM Tris, 150 mM NaCl, pH 7.6; no reducing agent (WT also with MV radicals); oligomer peak at 9.2 mL, dimer peak at 10.9 mL
crystal structure = target: the molecule itself; experiment: crystal structure

B1: wild-type (WT) ScdA, S. aureus, N-terminal His6 tag (enzyme)
chain: not shown
notes: also called as-isolated WT; reduced WT; not shown: His6, N-terminal, kept
In the case of B1, the “stoichiometry N” value [1] is reported as 2.

B2: cysteine-free (CF) ScdA variant (C30A/C31A/C191A), N-terminal His6 tag (enzyme)
chain: not shown
notes: also called CF variant; not shown: His6, N-terminal, kept
In the case of B2, the “stoichiometry N” value [2] is reported as 2.

B3: CF ScdA S77C (enzyme)
chain: not shown
notes: not shown: His6, N-terminal, kept
With B3 the “stoichiometry N” value [2] was 2.

B4: ScdA S77E variant (wild-type cysteines) (enzyme)
chain: not shown
notes: also called S77E mutant; not shown: His6, N-terminal, kept
B4: binds [2].

B5: tag-free variant of CF ScdA (tagless ScdA) (enzyme)
chain: not shown
notes: also called CF ScdA (crystal); source: E. coli, purified (Q Sepharose, SEC)
With B5 the “stoichiometry N” value (crystal structure) was 2.
